Like-named read-outs stand apart in the source and are kept apart here.

The target in assay [1] is T1, human CD19 (UniProt P15391 20-556).
T1 chain: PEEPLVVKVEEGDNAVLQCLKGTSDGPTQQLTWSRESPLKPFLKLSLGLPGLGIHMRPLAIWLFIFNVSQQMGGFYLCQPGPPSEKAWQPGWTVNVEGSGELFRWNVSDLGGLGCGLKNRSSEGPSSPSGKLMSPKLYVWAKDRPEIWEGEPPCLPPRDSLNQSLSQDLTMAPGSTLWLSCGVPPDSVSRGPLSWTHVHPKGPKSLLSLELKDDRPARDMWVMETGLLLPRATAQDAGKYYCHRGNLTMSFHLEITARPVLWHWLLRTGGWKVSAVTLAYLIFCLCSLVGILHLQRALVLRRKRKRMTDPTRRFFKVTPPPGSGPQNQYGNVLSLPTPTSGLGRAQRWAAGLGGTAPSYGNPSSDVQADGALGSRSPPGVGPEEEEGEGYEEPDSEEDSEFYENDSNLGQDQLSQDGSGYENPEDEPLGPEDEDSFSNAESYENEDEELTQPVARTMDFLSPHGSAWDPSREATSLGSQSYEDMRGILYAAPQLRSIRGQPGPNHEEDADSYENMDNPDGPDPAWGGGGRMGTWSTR
Kind of assay: FACS cell binding; avid.

In assay [2] the target is T2, human CD19 (human, UniProt P15391 20-556).
T2 construct: In the killing assay it is also on Daudi and Raji cells; also called K562-CD19; K562 cells stably transfected with human CD19
T2 sequence: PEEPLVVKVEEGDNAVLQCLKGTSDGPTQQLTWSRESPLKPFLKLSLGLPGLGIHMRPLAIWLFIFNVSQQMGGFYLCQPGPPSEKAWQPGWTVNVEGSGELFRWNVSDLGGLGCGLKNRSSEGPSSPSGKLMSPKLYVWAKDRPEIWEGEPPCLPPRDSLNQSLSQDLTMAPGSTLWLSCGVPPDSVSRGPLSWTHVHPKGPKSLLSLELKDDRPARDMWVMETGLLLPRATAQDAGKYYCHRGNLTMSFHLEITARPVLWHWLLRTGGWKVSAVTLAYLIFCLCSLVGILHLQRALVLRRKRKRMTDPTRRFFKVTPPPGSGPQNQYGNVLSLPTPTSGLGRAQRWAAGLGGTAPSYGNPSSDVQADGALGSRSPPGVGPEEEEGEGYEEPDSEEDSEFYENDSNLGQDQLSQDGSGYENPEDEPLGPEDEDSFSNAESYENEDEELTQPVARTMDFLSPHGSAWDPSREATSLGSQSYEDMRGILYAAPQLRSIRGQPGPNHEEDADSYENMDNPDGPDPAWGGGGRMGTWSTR
Kind of assay: flow cytometry, scFv_Fc on K562-CD19 cells, FITC anti-human Fc. How it is done: (§1) K562 cells (K562-CD19) stably expressing human CD19 and K562 were used, and cells were harvested, washed with complete growth medium and plated into U-bottom microtiter plates at approximately 1−5×10⁵ cells/well. The gradient-diluted huHD37 scFv_Fc fusion antibody was incubated with K562-CD19/K562 for 30 minutes on ice, and then incubated with FITC-labeled anti-human Fc as a secondary antibody. After two washing steps, the analysis was performed using Guava easyCyte™ HT System, and the experimental data was processed using GraphPad Prism to obtain an EC50.
K562 cells stably expressing human CD19 (K562-CD19) and K562 were used, and cells were harvested, washed with complete growth medium, and plated into U-bottom microtiter plates at approximately 1−5×10⁵ cells/well. The gradient diluted scFv_Fc fusion antibody was incubated with K562-CD19/K562 for 30 minutes on ice, and then incubated with FITC-labeled anti-human Fc as a secondary antibody. After two washing steps, the analysis was performed using Guava easyCyte™ HT System, and the experimental data was processed using GraphPad Prism to obtain an EC50.
Background: Flow cytometry measures light scatter and fluorescence of single cells or particles in a stream.

Assay [3] addresses T1, human CD19. Kind of assay: FACS cell binding; avid.
In assay [4] the target is T2, human CD19. Kind of assay: flow cytometry on K562-CD19 cells. How it is done:
as §1

B1: humanized antibody huHD37 (scFv_Fc fusion antibody) (Fc fusion)
scFv: QVQLVQSGAEVKKPGSSVKVSCKASGYTFSSYWMNWVRQAPGQGLEWMGQIWPGDGDTNYNGKFKGRVTITADESTSTAYMELSSLRSEDTAVYYCARRETTTVGRYYYAMDYWGQGTTVTVSSGGGGSGGGGSGGGGSDIVLTQSPASLAVSPGQRATITCKASQSVDYDGDSYLNWYQQKPGQPPKLLIYDASNLVSGVPARFSGSGSGTDFTLTINPVEANDTANYYCQQSTEDPWTFGQGTKVEIKR
notes: also called humanized huHD37; not shown: human IgG1 Fc fragment carried by the eukaryotic expression vector V152
On to B1, for which the EC50 (usually the midpoint of the concentration-response curve) in the assay with human CD19 [1] turned out to be 4.7 nM. Further, in the assay with human CD19 [2], the binding result is listed as “binds”.

B2: clone 6B3 (scFv_Fc) (Fc fusion)
scFv: QVQLVQSGAEVKKPGSSVKVSCKASGYTFSSYWINWVRQAPGQGLEWMGQIWPGDGETHYNGKFKGRVTITADESTSTAYMELSSLRSEDTAVYYCARRETTTVGRYYYAMDYWGQGTTVTVSSGGGGSGGGGSGGGGSDIVLTQSPASLAVSPGQRATITCKASQSVDYDGDSYLNWYQQKPGQPPKLLIYDASNLVSGVPARFSGSGSGTDFTLTINPVEANDTANYYCQQSTEDPWTFGQGTKVEIKR
Consider B2, for which the EC50 in the assay with human CD19 [3] is 2.74 nM.

B3: clone 8E3 (scFv_Fc) (Fc fusion)
scFv: QVQLVQSGAEVKKPGSSVKVSCKASGYTFSSYWMNWVRQAPGQGLEWMGQIWPGDGDTNYNGKFKGRVTITADESTSTAYMELSSLRSEDTAVYYCARRETTTVGRYYYAMDYWGQGTTVTVSSGGGGSGGGGSGGGGSDIVLTQSPASLAVSPGQRATITCKASHSLDYDGDNYLNWYQQKPGQPPKLLIYDASNLVSGVPARFSGSGSGTDFTLTINPVEANDTANYYCQQSTEDPWTFGQGTKVEIKR
notes: Only the light chain is said to differ from huHD37; not shown: Human Fc fragment of expression vector V152 (and any junction residues to it)
With B3, the binding result in the assay with human CD19 [2] is listed as “binds”. In the assay with human CD19 [3], this molecule showed a concentration for a half-maximal effect (EC50) of 4.72 nM.

B4: murine antibody HD37 (scFv chimeric with human IgG1 Fc) (Fc fusion)
VH: QVQLQQSGAELVRPGSSVKISCKASGYAFSSYWMNWVKQRPGQGLEWIGQIWPGDGDTNYNGKFKGKATLTADESSSTAYMQLSSLASEDSAVYFCARRETTTVGRYYYAMDYWGQGTTVTVSS
VL: DIQLTQSPASLAVSLGQRATISCKASQSVDYDGDSYLNWYQQIPGQPPKLLIYDASNLVSGIPPRFSGSGSGTDFTLNIHPVEKVDAATYHCQQSTEDPWTFGGGTKLEIKR
notes: also called parental antibody HD37; parental HD37
Consider B4, for which the binding result in the assay with human CD19 [4] was “binds”.

(Values after patent publication US20200062843A1 (CRAGE MEDICAL, published 2020).)
